# According to article PMC10796322, “Molecular switching in transcription through splicing and proline-isomerization regulates stress responses in plants” (Nature Communications, 2024):
# Positions count from the first letter of the chain named. Numbers in names are those of the source. Where “and” joins values, the source holds several entries; their conditions need not be identical. Equal entries are not always repeated. No end group written: not given here.
# T1: Med25-ACID R568A (Arabidopsis thaliana, UniProt Q7XYY2 532-680, R568A)
# T1 sequence: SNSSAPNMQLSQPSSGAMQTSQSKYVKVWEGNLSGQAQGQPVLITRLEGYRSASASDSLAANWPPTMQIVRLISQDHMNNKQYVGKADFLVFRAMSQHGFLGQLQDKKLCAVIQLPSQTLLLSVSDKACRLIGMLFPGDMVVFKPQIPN
# T2: Med25-ACID_(532-680), activator interaction domain (ACID) of mediator complex subunit 25 (Arabidopsis thaliana, UniProt Q7XYY2 532-680)
# T2 chain: T1 sequence with A37R
# T3: Med25-ACID_(532-680), activator interaction domain (ACID) of mediator complex subunit 25 (Arabidopsis thaliana, UniProt Q7XYY2 532-680)
# T3 construct: 15N- or 13C,15N-labelled in the NMR titrations; unlabelled in ITC, CEST and stopped-flow; also called AtMed25-ACID; ACID domain; source: E. coli BL21 DE3, purified (glutathione Sepharose, TEV cleavage, cation exchange, SEC); not shown: GST, N-terminal, cleaved
# T3 sequence (looked up): T1 sequence with A37R
# B1: DREB2A_(195-276) (domain or fragment, Arabidopsis thaliana, UniProt O82132 195-276, looked up)
# chain: VKADKHWLSEFEHNYWSDILKEKEKQKEQGIVETCQQQQQDSLSVADYGWPNDVDQSHLDSSDMFDVDELLRDLNGDDVFAG
# notes: source: E. coli BL21 DE3, purified (glutathione Sepharose, TEV cleavage, SEC); not shown: GST, N-terminal, cleaved
# B2: DREB2A_(195-335,Δ244-276) (domain or fragment, Arabidopsis thaliana, UniProt O82132 195-335, looked up)
# chain: VKADKHWLSEFEHNYWSDILKEKEKQKEQGIVETCQQQQQDSLSVADYGLNQDRYPGNSVANGSYRPESQQSGFDPLQSLNYGIPPFQLEGKDGNGFFDDLSYLDLEN
# notes: also called splice variant fragment; source: E. coli BL21 DE3, purified (glutathione Sepharose, TEV cleavage, SEC); not shown: GST, N-terminal, cleaved
# B3: DREB2A_(234-276,P245A) (domain or fragment, Arabidopsis thaliana, UniProt O82132 234-276, looked up)
# chain: QDSLSVADYGWANDVDQSHLDSSDMFDVDELLRDLNGDDVFAG
# notes: Isotope-labelled in the CEST experiments; also called ABS-RIM_(P245A); DREB2A_(P245A); source: E. coli BL21 DE3, purified (glutathione Sepharose, TEV cleavage, SEC); not shown: GST, N-terminal, cleaved
# B4: DREB2A_(234-256) (ABS) (domain or fragment, Arabidopsis thaliana, UniProt O82132 234-256, looked up)
# chain: QDSLSVADYGWPNDVDQSHLDSS
# notes: also called monovalent ABS fragment; source: E. coli BL21 DE3, purified (glutathione Sepharose, TEV cleavage, SEC); not shown: GST, N-terminal, cleaved
# B5: DREB2A_(151-335) (domain or fragment, Arabidopsis thaliana, UniProt O82132 151-335, looked up)
# chain: VCTVETPGCVHVKTEDPDCESKPFSGGVEPMYCLENGAEEMKRGVKADKHWLSEFEHNYWSDILKEKEKQKEQGIVETCQQQQQDSLSVADYGWPNDVDQSHLDSSDMFDVDELLRDLNGDDVFAGLNQDRYPGNSVANGSYRPESQQSGFDPLQSLNYGIPPFQLEGKDGNGFFDDLSYLDLEN
# notes: also called C-terminal intrinsically disordered region (IDR) of DREB2A; source: E. coli BL21 DE3, purified (glutathione Sepharose, TEV cleavage, SEC); not shown: GST, N-terminal, cleaved
# B6: DREB2A_(234-335) (domain or fragment, Arabidopsis thaliana, UniProt O82132 234-335, looked up)
# chain: QDSLSVADYGWPNDVDQSHLDSSDMFDVDELLRDLNGDDVFAGLNQDRYPGNSVANGSYRPESQQSGFDPLQSLNYGIPPFQLEGKDGNGFFDDLSYLDLEN
# notes: DREB2A, Arabidopsis thaliana, AT5G05410, residues 234-335; source: E. coli BL21 DE3, purified (glutathione Sepharose, TEV cleavage, SEC); not shown: GST, N-terminal, cleaved
# B7: DREB2A_(234-272) (domain or fragment, Arabidopsis thaliana, UniProt O82132 234-272, looked up)
# chain: QDSLSVADYGWPNDVDQSHLDSSDMFDVDELLRDLNGDD
# notes: DREB2A, Arabidopsis thaliana, AT5G05410, residues 234-272; source: E. coli BL21 DE3, purified (glutathione Sepharose, TEV cleavage, SEC); not shown: GST, N-terminal, cleaved
# B8: DREB2A_(195-276) F259A (domain or fragment, Arabidopsis thaliana, UniProt O82132 195-276, looked up)
# chain: B1 chain with F65A
# notes: as for B1
# B9: DREB2A_(195-276) L237A (domain or fragment, Arabidopsis thaliana, UniProt O82132 195-276, looked up)
# chain: B1 chain with L43A
# notes: as for B1
# B10: DREB2A_(195-276) E263P (domain or fragment, Arabidopsis thaliana, UniProt O82132 195-276, looked up)
# chain: B1 chain with E69P
# notes: also called helix-disrupting DREB2A E263P variant; source: E. coli BL21 DE3, purified (glutathione Sepharose, TEV cleavage, SEC); not shown: GST, N-terminal, cleaved
# B11: DREB2A_(195-276) W244A (domain or fragment, Arabidopsis thaliana, UniProt O82132 195-276, looked up)
# chain: B1 chain with W50A
# notes: as for B1
# B12: DREB2A_(195-276) V239A (domain or fragment, Arabidopsis thaliana, UniProt O82132 195-276, looked up)
# chain: B1 chain with V45A
# notes: as for B1
# B13: DREB2A_(195-276) F274A (domain or fragment, Arabidopsis thaliana, UniProt O82132 195-276, looked up)
# chain: B1 chain with F80A
# notes: as for B1
# B14: DREB2A_(195-276) D241A (domain or fragment, Arabidopsis thaliana, UniProt O82132 195-276, looked up)
# chain: B1 chain with D47A
# notes: as for B1
# B15: FITC-DREB2A_(234-276) (domain or fragment, Arabidopsis thaliana, UniProt O82132 234-276, looked up)
# chain: B3 chain with A12P
# modifications: also: single FITC label, position not given here
# notes: also called FITC-labeled ABS-RIM; single-labeled FITC-DREB2A; source: E. coli BL21 DE3, purified; labeled with a FITC labeling kit (Pierce) and purified by reversed phase chromatography; not shown: GST, N-terminal, cleaved
# Biological target: T4, Med25-ACID (Arabidopsis thaliana, UniProt Q7XYY2)
# T4 construct: Med25-ACID532-680 (AT1G25540), expressed in E. coli with N-terminal GST tag removed by TEV protease
# Test: not given
# Conditions: SD
# Description: All protein fragments were produced with an N-terminal Glutathione-S-transferase (GST) tag which was removed using Tobacco Etch Virus (TEV) protease and expressed from E.coli BL21 DE3 cells. DREB2A (AT5G05410) variants were expressed at 37 °C for three hours. The DREB2A splice variant (AT5G05410.2) was based on GenBank ID CD530293[21]. Due to stability and aggregation considerations, Med25-ACID (AT1G25540) was expressed with additional N-terminal residues. Expression of Med25-ACID532-680 was induced at high OD (0.8-1.0) and cultured overnight at 18 °C. Cells were resuspended in 20 mM Tris-HCl pH 8.0, 100 mM NaCl lysis buffer and sonicated. The lysate was incubated with glutathione Sepharose for one hour and washed using the lysis buffer. Aliquots of 5 mL resin were resuspended in 20 mL of lysis buffer with 5 mM dithiothreitol (DTT) and 1 mM EDTA and the protein was cleaved overnight at 4 °C using TEV protease. For DREB2A, cleaved protein was freeze-dried and buffer-changed to experimental buffer using size exclusion chromatography. Med25-ACID was further purified using cation exchange (Source 15 S) at pH 8.5 and the buffer was changed using size exclusion chromatography (Superdex S75 10/300 GL). Isotope-labeled proteins were produced by growing the initial culture in lysogenic broth and transferring to half volume M9 minimal media 30 min before induction.
# ITC was performed on either a MicroCal ITC200 or a Malvern Pananalytical PEAQ-ITC. All ITC experiments were performed using a 50 mM HEPES pH 7.4, 100 mM NaCl and 0.5 mM tris(2-carboxyethyl)phosphine (TCEP) buffer. All experiments were performed using a ~ 1:10 cell to syringe protein concentration ratio. For high-affinity DREB2A fragments, the cell concentration was around 15 µM, while lower-affinity interaction experiments used higher concentrations. Samples were degassed by centrifuging at 20,000 x g for 20 minutes at experimental temperature. For three DREB2A fragments, experiments were performed over a range of temperatures to determine the ΔCp. Reported thermodynamic parameters are given at 25 °C. Data were analyzed using Origin and inhouse scripts using the one-set-of-sites model as documented by MicroCal and Origin. Dilution heats were fitted using an offset parameter. Most experiments were performed using a 0.5 µl initial injection, which was discarded in the analysis, followed by 18 injections of 2.0 µl.
# T4 sequence (Q7XYY2 532-680): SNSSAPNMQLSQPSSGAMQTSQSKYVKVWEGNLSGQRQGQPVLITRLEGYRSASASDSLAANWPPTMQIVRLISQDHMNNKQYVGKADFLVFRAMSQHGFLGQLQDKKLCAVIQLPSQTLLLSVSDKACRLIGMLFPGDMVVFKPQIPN
row,Molecule,Kd
1,DREB2A195-276 F274A,0.66 ± 0.09 µM
2,DREB2A151-335 [151–335],0.54 ± 0.04 µM
3,DREB2A195-276 D241A,2 ± 0.7 µM
4,DREB2A195-276 W244A,1.9 ± 0.2 µM
5,DREB2A234-335 [234–335],0.44 ± 0.06 µM
6,DREB2A195-276 V239A,2 ± 0.2 µM
7,"DREB2A195-335,Δ244-276 (splice variant fragment) [195–335 ∆244–276]",5.4 ± 0.6 µM
8,DREB2A195-276 F259A,0.55 ± 0.05 µM
9,DREB2A195-276 E263P,0.58 ± 0.04 µM
10,DREB2A195-276 L237A,2.4 ± 0.3 µM

# Biological target: Med25-ACID_(532-680), activator interaction domain (ACID) of mediator complex subunit 25 (Arabidopsis thaliana) (UniProt Q7XYY2)
# Test: NMR titration; 15N-HSQC; 100-150 µM 15N-labeled Med25-ACID(532-680) at constant concentration with increasing DREB2A ligand; 20 mM Na2HPO4/NaH2PO4 pH 6.5, 100 mM NaCl; chemical shift perturbations
# Conditions: not given
Molecule,KD (binding surface site),"KD (binding surface site, by NMR)",KD (groove site)
DREB2A_(255-276) (RIM) (from UniProt O82132 255-276) (domain or fragment),3000 to 6000 µM,5000 µM,200 to 400 µM

# Biological target: T1, Med25-ACID R568A
# Test: ITC
# Conditions: not given
row,Molecule,Kd
1,B1,3.2 µM and 2.9 µM

# Biological target: T2, Med25-ACID_(532-680), activator …
# Test: stopped-flow, cis proline isomer, 10 °C
# Conditions: not given
row,Molecule,koff
1,"QDSLSVADYGWPNDVDQSHLDSSDMFDVDELLRDLNGDDVFAG (domain or fragment, also: FITC label, position not given here)",6 s⁻¹

# Biological target: T2, Med25-ACID_(532-680), activator …
# Test: stopped-flow, trans proline isomer, 10 °C
# Conditions: not given
row,Molecule,koff
1,"QDSLSVADYGWPNDVDQSHLDSSDMFDVDELLRDLNGDDVFAG (domain or fragment, also: FITC label, position not given here)",24 s⁻¹

# Biological target: T3, Med25-ACID_(532-680), activator …
# Test: ITC; 25 °C; 50 mM HEPES pH 7.4, 100 mM NaCl, 0.5 mM TCEP; ~1:10 cell to syringe concentration ratio, cell around 15 µM for high-affinity fragments; one-set-of-sites model; which protein was in the cell is not stated
# Conditions: both partners purified
Molecule,Kd,dH,stoichiometry N
B2,5.4 µM,-14.1 kcal/mol,1.02
B3,0.78 ± 0.06 µM,-10.4 ± 0.191 kcal/mol,1.26 ± 0.01
B4,6 µM,-12.9 kcal/mol,0.86
B5,,-12.5 kcal/mol,1.1
B6,0.44 µM,-13.9 kcal/mol,1
B7,1.8 µM,-10.3 kcal/mol,0.97
B1,0.45 µM,-12.2 kcal/mol,1.09
B8,0.55 ± 0.05 µM,-14.1 ± 0.215 kcal/mol,1.2 ± 0.1
B9,2.4 ± 0.3 µM,-5.47 ± 0.167 kcal/mol,1.03 ± 0.06
B10,0.58 ± 0.04 µM,-14.6 ± 0.191 kcal/mol,1 ± 0.06
B11,1.9 ± 0.2 µM,-11.2 ± 0.239 kcal/mol,1 ± 0.1
B12,2 ± 0.2 µM,-10 ± 0.239 kcal/mol,0.95 ± 0.01
B13,0.66 ± 0.09 µM,-14.8 ± 0.478 kcal/mol,0.86 ± 0.02
B14,2 ± 0.7 µM,-8.84 ± 1.67 kcal/mol,1.07 ± 0.06

# Biological target: T3, Med25-ACID_(532-680), activator …
# Test: stopped-flow fluorescence; FITC-DREB2A (50 nM 234-276 or 250 nM 234-256) mixed with increasing Med25-ACID(532-680), pseudo-first-order; dissociation by competitive displacement with unlabeled DREB2A; 50 mM HEPES pH 7.4, 100 mM NaCl, 1 mM DTT; Fig. 7 legend gives kinetic rate constants at 10 °C
# Conditions: both partners purified
row,Molecule,binding result
1,B15,binds

# Biological target: T2, Med25-ACID_(532-680), activator …
# Test: NMR; first site (Kd,1), competitive two binding sites model
# Conditions: not given
row,Molecule,Kd
1,SSDMFDVDELLRDLNGDDVFAG (domain or fragment) [DREB2A_(255-276) (RIM)],280 µM

# Biological target: T2, Med25-ACID_(532-680), activator …
# Test: NMR; second site (Kd,2), competitive two binding sites model
# Conditions: not given
row,Molecule,Kd
1,SSDMFDVDELLRDLNGDDVFAG (domain or fragment) [DREB2A_(255-276) (RIM)],4700 µM

# Biological target: RCD1 RST (Arabidopsis thaliana) (UniProt Q8RY59)
# Test: not given
# Conditions: cited from earlier work
row,Molecule,Kd
1,DREB2A (from UniProt O82132),0.012 µM
